The record followed here is US20210253718A1 (MODMAB THERAPEUTICS, published 2021).

In assay [1] the target is T1, FZD1 cysteine-rich domain (CRD), MYC-tagged and GPI-anchored on CHO cells (human). Description: flow cytometry, CHO-CRD cells.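 Further: flow cytometry of Fab binding to CHO cells overexpressing a Frizzled CRD, with binding defined as median fluorescence over twice that of CHO cells lacking any Frizzled CRD.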 For orientation: In flow cytometry, cells or beads pass a laser one at a time.
Description: (§1) Binding was measured via flow cytometry analysis of CHO cells overexpressing CRD of FZD1, FZD2, FZD3, FZD4, FZD5, FZD6, FZD7, FZD8, FZD9 or FZD10. Median fluorescence values are shown.
Assay [2] deals with T2, FZD2 cysteine-rich domain (CRD), MYC-tagged and GPI-anchored on CHO cells (human, UniProt Q14332 35-161). Description: flow cytometry, CHO-CRD cells.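 Further: flow cytometry of Fab binding to CHO cells overexpressing a Frizzled CRD, with binding defined as median fluorescence over twice that of CHO cells lacking any Frizzled CRD.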
Description: as §1
Assay [3] addresses T3, FZD3 cysteine-rich domain (CRD), MYC-tagged and GPI-anchored on CHO cells (human, UniProt Q9NPG1 24-150, GPI anchor).
T3 construct: domain: cysteine-rich domain (CRD); also called FZD3 CRD; CHO-myc-FZDGPI; not shown: MYC tag and GPI anchor signal
T3 sequence (looked up): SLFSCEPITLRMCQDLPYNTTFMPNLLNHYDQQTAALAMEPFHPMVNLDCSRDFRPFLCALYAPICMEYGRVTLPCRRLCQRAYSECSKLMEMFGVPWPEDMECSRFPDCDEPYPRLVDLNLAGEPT
Description: flow cytometry, CHO-CRD cells.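 Further: flow cytometry of Fab binding to CHO cells overexpressing a Frizzled CRD, with binding defined as median fluorescence over twice that of CHO cells lacking any Frizzled CRD.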

In assay [4] the target is T4, FZD4 cysteine-rich domain (CRD), MYC-tagged and GPI-anchored on CHO cells (human, UniProt Q9ULV1 42-167, GPI anchor).
T4 construct: also called FZD4 CRD; CHO-myc-FZDGPI; not shown: MYC tag and GPI anchor signal
T4 sequence: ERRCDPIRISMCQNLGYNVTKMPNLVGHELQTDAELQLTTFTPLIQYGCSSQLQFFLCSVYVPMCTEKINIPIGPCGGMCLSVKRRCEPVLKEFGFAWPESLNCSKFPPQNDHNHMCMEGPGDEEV
The assay is described as follows: flow cytometry, CHO-CRD cells.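 Further: flow cytometry of Fab binding to CHO cells overexpressing a Frizzled CRD, with binding defined as median fluorescence over twice that of CHO cells lacking any Frizzled CRD.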

Assay [5] deals with T5, FZD5 cysteine-rich domain (CRD), MYC-tagged and GPI-anchored on CHO cells (human, UniProt Q13467 29-156, GPI anchor).
T5 construct: also called FZD5 CRD; CHO-myc-FZDGPI; not shown: MYC tag and GPI anchor signal
T5 sequence: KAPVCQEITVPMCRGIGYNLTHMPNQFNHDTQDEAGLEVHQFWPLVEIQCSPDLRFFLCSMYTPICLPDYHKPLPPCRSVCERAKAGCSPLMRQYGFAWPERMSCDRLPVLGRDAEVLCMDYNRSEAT
The assay is described as follows: flow cytometry, CHO-CRD cells.

The target in assay [6] is T6, FZD6 cysteine-rich domain (CRD), MYC-tagged and GPI-anchored on CHO cells (human, UniProt O60353 20-146, GPI anchor).
T6 construct: also called FZD6 CRD; CHO-myc-FZDGPI; not shown: MYC tag and GPI anchor signal
T6 sequence: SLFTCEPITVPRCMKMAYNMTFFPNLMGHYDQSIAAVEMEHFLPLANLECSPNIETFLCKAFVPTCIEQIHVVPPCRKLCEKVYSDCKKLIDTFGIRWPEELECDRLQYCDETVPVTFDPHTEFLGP
The assay is described as follows: flow cytometry, CHO-CRD cells.

Assay [7] concerns the target T7, FZD7 cysteine-rich domain (CRD), MYC-tagged and GPI-anchored on CHO cells (human, UniProt O75084 45-169). Description: flow cytometry, CHO-CRD cells.
Description: as §1
Assay [8] addresses T8, FZD8 cysteine-rich domain (CRD), MYC-tagged and GPI-anchored on CHO cells (human, UniProt Q498S8 31-155 (rat entry), GPI anchor).
T8 construct: also called FZD8 CRD; CHO-myc-FZDGPI; not shown: MYC tag and GPI anchor signal
T8 sequence: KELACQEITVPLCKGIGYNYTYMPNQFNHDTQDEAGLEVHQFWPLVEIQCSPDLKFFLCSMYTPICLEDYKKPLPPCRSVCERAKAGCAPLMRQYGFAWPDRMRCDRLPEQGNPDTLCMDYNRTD
Description: flow cytometry, CHO-CRD cells.

In assay [9] the target is T9, FZD9 cysteine-rich domain (CRD), MYC-tagged and GPI-anchored on CHO cells (human, UniProt O00144 35-161, GPI anchor).
T9 construct: also called FZD9 CRD; CHO-myc-FZDGPI; not shown: MYC tag and GPI anchor signal
T9 sequence: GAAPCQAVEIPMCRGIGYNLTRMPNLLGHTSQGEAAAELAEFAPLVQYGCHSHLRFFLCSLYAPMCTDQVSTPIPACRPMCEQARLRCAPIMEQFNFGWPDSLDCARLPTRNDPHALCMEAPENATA
The assay is described as follows: flow cytometry, CHO-CRD cells.

The target in assay [10] is T10, FZD10 cysteine-rich domain (CRD), MYC-tagged and GPI-anchored on CHO cells (human, UniProt Q9ULW2 30-156, GPI anchor).
T10 construct: also called FZD10 CRD; CHO-myc-FZDGPI; not shown: MYC tag and GPI anchor signal
T10 sequence: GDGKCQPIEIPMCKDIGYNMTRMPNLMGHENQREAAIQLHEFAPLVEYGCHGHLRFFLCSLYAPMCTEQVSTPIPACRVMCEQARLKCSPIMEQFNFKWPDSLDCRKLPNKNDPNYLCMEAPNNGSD
The assay is described as follows: flow cytometry, CHO-CRD cells.

Assay [11] concerns the target T1, FZD1 cysteine-rich domain (CRD), …. The assay is described as follows: flow cytometry on CHO-GPI cells over-expressing the Frizzled CRD.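 Further: binding of recombinant anti-Frizzled Fabs to the cells, read as fold mean fluorescence intensity above secondary-antibody-only background and normalized to control CHO-GPI cells.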
Description: (§2) Specificity profiling of the Frizzled profiler Fabs by flow cytometry in CHO-GPI cells over-expressing CRDs of FZD1, FZD2, FZD3, FZD4, FZD5, FZD6, FZD7, FZD8, FZD9 or FZD10. Numerical values indicate a fold-increase in mean fluorescence intensity of the reacting Fab over the background (secondary antibody alone) normalized to the control (C, CHO-GPI).
(§3) To characterize the binding specificity of these Fabs on cells, a panel of 10 CHO cell lines was generated, each expressing the CRD domain of a different myc-tagged Frizzled family member anchored at the plasma membrane through a GPI anchor (CHO-myc-FZDGPI).
Assay [12] addresses T2, FZD2 cysteine-rich domain (CRD), …. Described as above.
Description: as §2, §3
Assay [13] deals with T3, FZD3 cysteine-rich domain (CRD), …. The assay is described as above.
Description: as §2, §3
Assay [14] deals with T4, FZD4 cysteine-rich domain (CRD), …. Described as above.
Description: as §2, §3
Assay [15] concerns the target T5, FZD5 cysteine-rich domain (CRD), …. The assay is described as above.
Description: as §2, §3
In assay [16] the target is T6, FZD6 cysteine-rich domain (CRD), …. Described as above.
Description: as §2, §3
Assay [17] has as its target T7, FZD7 cysteine-rich domain (CRD), …. The description is as above.
Description: as §2, §3
Assay [18] deals with T8, FZD8 cysteine-rich domain (CRD), …. Described as above.
Description: as §2, §3
Assay [19] concerns the target T9, FZD9 cysteine-rich domain (CRD), …. The assay is described as above.
Description: as §2, §3
Assay [20] has as its target T10, FZD10 cysteine-rich domain (CRD), …. The assay is described as above.
Description: as §2, §3
Assay [21] has as its target T3, FZD3 cysteine-rich domain (CRD), …. Description: immunofluorescence, CHO-CRD cells.
The target in assay [22] is T4, FZD4 cysteine-rich domain (CRD), …. Description: immunofluorescence, CHO-CRD cells.
Assay [23] has as its target T6, FZD6 cysteine-rich domain (CRD), …. Description: immunofluorescence, CHO-CRD cells.
Assay [24] deals with T8, FZD8 cysteine-rich domain (CRD), …. The assay is described as follows: immunofluorescence, CHO-CRD cells.
Assay [25] has as its target T9, FZD9 cysteine-rich domain (CRD), …. Description: immunofluorescence, CHO-CRD cells.
The target of assay [26] is T10, FZD10 cysteine-rich domain (CRD), …. The assay is described as follows: immunofluorescence, CHO-CRD cells.

Where a chain is given by its changes, count along the chain named.

B1: Fab-2921 (Fab, V domains shown)
VH: EVQLVESGGGLVQPGGSLRLSCAASGFNISYYYIHWVRQAPGKGLEWVASIYPSSGSTSYADSVKGRFTISADTSKNTAYLQMNSLRAEDTAVYYCARGAMDYWGQGTLVTVSS
VL: DIQMTQSPSSLSASVGDRVTITCRASQSVSSAVAWYQQKPGKAPKLLIYSASSLYSGVPSRFSGSRSGTDFTLTISSLQPEDFATYYCQQWYAGSLITFGQGTKVEIK
notes: Fab
Consider B1, for which the median fluorescence was 4.53 in assay [1]; 4.37 in [2]; 3.59 in assay [3]; 4.1 in [4]; 29.4 in [5]; 2.67 in assay [6]. Further, the median fluorescence came to 4.37 in assay [7], 6.98 in assay [8], 2.94 in assay [9] and 2.48 in [10]. Besides, the binding result in [11], in [12], in assay [13], in assay [14], in assay [16] and in [17] was “no binding (tested: 200 nM)” in each case. The binding result in [19] and in assay [20] was “no binding (tested: 200 nM)” throughout. Besides, the entries for the “fold-increase in mean fluorescence intensity over background (secondary antibody alone), normalized to control CHO-GPI” value in assay [15] and in assay [18] were 14 fold and 6.8 fold, respectively.

B2: Fab-2908 (Fab, V domains shown)
VH: EVQLVESGGGLVQPGGSLRLSCAASGFNFSSSSIHWVRQAPGKGLEWVAYIYPSYSYTYYADSVKGRFTISADTSKNTAYLQMNSLRAEDTAVYYCARAYYGHFHAMDYWGQGTLVTVSS
VL: DIQMTQSPSSLSASVGDRVTITCRASQSVSSAVAWYQQKPGKAPKLLIYSASSLYSGVPSRFSGSRSGTDFTLTISSLQPEDFATYYCQQSSYSLITFGQGTKVEIK
notes: Fab; also called Fv-2908
Regarding B2, the median fluorescence worked out at 3.22 in assay [3]; 4.57 in assay [4]; 25.5 in assay [5]; 2.89 in assay [6]; 5.52 in assay [8]; 3.13 in assay [9]. In [10], the median fluorescence turned out to be 3.08. For the same molecule, the binding result in assay [21], in [22], in assay [23], in assay [24], in [25] and in assay [26] was “no binding” each time.

B3: Fab-2911 (Fab, V domains shown)
VH: EVQLVESGGGLVQPGGSLRLSCAASGFNIYYSSMHWVRQAPGKGLEWVAYIYPYSGYTSYADSVKGRFTISADTSKNTAYLQMNSLRAEDTAVYYCARYFWWYGFDYWGQGTLVTVSS
VL: B2 VL with S91G, S92P, Y93W, S94Y, L95P, I96F
notes: Fab; also called Fv-2911
In the case of B3, the median fluorescence was 38.2 in [1]; 22.7 in [2]; 4.96 in assay [3]; 6.21 in assay [4]; 20.5 in assay [5]; 3.68 in [6]. Besides, the median fluorescence in assay [7] worked out at 43.3; in assay [8], 7.43; in assay [9], 4.1; in assay [10] it was 3.96. The binding result in [21], in [22], in assay [23], in assay [24], in assay [25] and in [26] was “no binding” in each case.
